Test results published in patent publication US20190023791A1 (GlaxoSmithKline, published 2019).
Several values for one entry are separate records, joined by “and”; a condition that tells them apart may be missing. Equal values may be shown once.

What was measured:
[1] = biological target: T1, human OX40 on cells (activated human CD4+ T cells, stimulated PBMC, lymphocytes in whole blood) (human, UniProt P43489 29-277); assay: cell-based or functional assay
T1 sequence (looked up): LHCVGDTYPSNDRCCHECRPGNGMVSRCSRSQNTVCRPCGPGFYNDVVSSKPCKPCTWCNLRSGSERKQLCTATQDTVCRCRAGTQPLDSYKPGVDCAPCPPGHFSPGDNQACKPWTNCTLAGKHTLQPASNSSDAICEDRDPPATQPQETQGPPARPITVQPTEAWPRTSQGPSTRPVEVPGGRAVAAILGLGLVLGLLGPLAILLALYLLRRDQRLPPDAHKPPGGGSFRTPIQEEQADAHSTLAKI

[2] = biological target: T2, cynomolgus monkey OX40 on cells (activated cynomolgus monkey CD4+ T cells, OX40+ cells in peripheral blood) (cynomolgus monkey); assay: cell-based or functional assay
[3] = biological target: T1, human OX40 on cells (activated human …); assay: unstimulated human whole-blood binding assay, lymphocytes
[4] = biological target: T3, recombinant OX40 extracellular domain from cynomolgus monkeys (cynomolgus monkey); assay: binding to recombinant OX40 extracellular domain, method not stated
T3 construct: extracellular domain; also called cynomolgus monkey OX40

[5] = biological target: T1, human OX40 on cells (activated human …); assay: binding to activated human CD4+ T cells; activated human CD4+ T cells
[6] = biological target: T1, human OX40 on cells (activated human …); assay: binding to stimulated human PBMC; stimulated human PBMC; lower end of range
[7] = biological target: T1, human OX40 on cells (activated human …); assay: binding to stimulated human PBMC; stimulated human PBMC; upper end of range
[8] = biological target: T2, cynomolgus monkey OX40 on cells …; assay: binding to activated cynomolgus monkey CD4+ T cells; activated cynomolgus monkey CD4+ T cells
[9] = biological target: T4, recombinant OX40 extracellular domain from humans (human, UniProt P43489 29-214); assay: binding to recombinant OX40 extracellular domain, method not stated; recombinant human OX40 extracellular domain
T4 construct: extracellular domain; also called human OX40; hOX40
T4 sequence (looked up): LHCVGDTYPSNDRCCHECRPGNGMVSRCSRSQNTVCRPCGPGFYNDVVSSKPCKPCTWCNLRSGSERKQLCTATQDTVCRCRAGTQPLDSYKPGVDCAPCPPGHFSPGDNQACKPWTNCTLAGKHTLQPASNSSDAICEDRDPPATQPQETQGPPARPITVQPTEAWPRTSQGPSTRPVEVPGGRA

B1: ANTIBODY 106-222 (antibody, human IgG1, kappa, V domains shown)
VH: QVQLVQSGSELKKPGASVKVSCKASGYTFTDYSMHWVRQAPGQGLKWMGWINTETGEPTYADDFKGRFVFSLDTSVSTAYLQISSLKAEDTAVYYCANPYYDYVSYYAMDYWGQGTTVTVSS
VL: DIQMTQSPSSLSASVGDRVTITCKASQDVSTAVAWYQQKPGKAPKLLIYSASYLYTGVPSRFSGSGSGTDFTFTISSLQPEDIATYYCQQHYSTPRTFGQGTKLEIKR
notes: also called humanized wild-type IgG1 anti-OX40 agonistic mAb
- anti-CD3 induced proliferation of activated human CD4+ T cells, mean EC50 [1]: 0.19 µg/mL and 1.3 nM
- proliferation of immobilized anti-CD3 activated cynomolgus monkey CD4+ T cells, mean EC50 [2]: 0.72 µg/mL and 4.8 nM
- EC50 [3]: 1.45 µg/mL
- Kd [4]: 408 nM
- EC50 [5]: 0.3 µg/mL
- EC50 [6]: ≥ 0.1 µg/mL
- EC50 [7]: ≤ 0.3 µg/mL
- EC50 [8]: 0.35 µg/mL
- Kd [9]: 4.9 nM
